US9932390 (SHRINERS HOSPITAL FOR CHILDREN, dated 2018)
Positions of bridges follow the written chain, without caps; N, C: chain ends. Chains are numbered I, II in the order given. No end group written: not given here.

T1: α3NC2-(GPP)5CC (human, not fully specified; chain 1: Cys60 and Cys61 (collagen III cystine knot) form interchain disulfides in the oxidized trimer. Cys15 is also counted as oxidized in the calculated trimer mass.)
T1 construct: Mixed and reoxidized as a His-tagged thioredoxin fusion, then characterized after thrombin cleavage as part of α123NC2-(GPP)5CC; also called Trx_α3NC2-(GPP)5CC (before thrombin cleavage)
T1 peptide: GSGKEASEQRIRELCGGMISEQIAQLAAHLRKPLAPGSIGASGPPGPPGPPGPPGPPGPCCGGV

T2: α2NC2 (NC2 domain of the human collagen IX α2 chain) (human)
T2 construct: Expressed as the Trx_α2NC2 fusion and cleaved with thrombin; also called U2
T2 peptide: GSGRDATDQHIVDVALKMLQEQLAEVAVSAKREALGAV


Tests used:
α3NC2-(GPP)5CC = target: T1, α3NC2-(GPP)5CC; test: oxidative folding of the three Trx fusions, non-reducing SDS-PAGE
Method: Initially the purified constructs either with or without collagenous part were folded under the same oxidative conditions. The three chains of approximately equal concentrations were mixed, diluted with water and the buffer was adjusted to 100 mM Tris/HCl buffer, pH 8.6, containing 15 mM Na-phosphate, 150 mM NaCl, 150 mM imidazol, 10 mM reduced glutathione, 1 mM oxidized glutathione at 25° C. Final concentration of each chain was ~10 µM. The solution was sequentially incubated at 37° C. for 24 hours, at 30° C. for 24 hours, 25° C. for 24 hours and the pH value was periodically checked and adjusted to be not lower than 8.3. Finally, the solution was extensively dialyzed against 50 mM Tris/HCl buffer, pH 8, containing 150 mM NaCl, at room temperature to remove imidazol and reducing agents.
1.11.3. Results: Initial Purification of Fusion Proteins Trx_α1NC2-(GPP)_5C, Trx_α2NC2-(GPP)_5CC and Trx_α3NC2-(GPP)5CC and their Reoxidation Soluble fractions of cell lysates were separately purified over the Ni-NTA resin and analyzed on a gel (FIG. 2A, lanes 1-3). In addition to bands corresponding to monomeric species around 20 kDa, dimeric, trimeric and ladders of higher multimers were observed, indicating formation of multiple intermolecular disulfide bonds, presumably due to misfolding. […]

[1] = target: T2, α2NC2 (NC2 domain of the human collagen …); test: CD at 222 nm, thermal transition at 18.7 µM complex, pH 4.5, bimolecular two-state fit
Method: (§1) FIG. 9. Thermal transitions of the NC2-containing complexes. A, Thermal transition curves of α123NC2-(GPP)_5CC were recorded in 50 mM sodium acetate buffer, pH 4.5, supplemented with 0M (green circles), 1M (red circles for heating and blue circles for cooling), and 2M (cyan circles) guanidine hydrochloride using 7 μM complex concentrations and a 1-mm path length quartz cuvette. The change in collagen triple helical and α-helical contents was monitored at 230 nm with a scan rate of 1° C./min. […] The first transition followed by the increase of the CD signal is associated with the unfolding of the collagen triple helix, whereas the second transition is associated with the unfolding of the NC2 domain. […] The change in α-helical content was monitored at 222 nm with a scan rate of 0.25° C./min. The curves were globally fitted (white lines) as described herein.
(§2) Since the α1NC2 chain is disulfide-linked to the α3NC2 chain, only two products dissociates from the complex upon denaturation and the folding reaction should be considered as bimolecular. According to this and other assumptions (see 1.1.-1.10., above), two transitions using a 10-fold difference in concentrations of the complex were separately globally fitted and yielded similar values of the standard enthalpy, $\Delta H^0$, and the standard entropy, $\Delta S^0$.

[2] = target: T2, α2NC2 (NC2 domain of the human collagen …); test: CD at 222 nm, thermal transition at 1.87 µM complex, pH 4.5, bimolecular two-state fit
Method: as §1, §2

Row | Binder | binding result (α3NC2-(GPP)5CC) | Tm (midpoint of the coupled unfolding and dissociation) [1] [° C.] | ΔH^0 (standard enthalpy of U13+U2 to N) [1] | ΔS^0 (standard entropy of U13+U2 to N) [1] | Tm (midpoint of the coupled unfolding and dissociation) [2] [° C.] | ΔH^0 (standard enthalpy of U13+U2 to N) [2] | ΔS^0 (standard entropy of U13+U2 to N) [2]
1 | α1NC2-(GPP)5CC (not fully specified; also: interchain disulfides via Cys62 and Cys63 in the trimer with other chains, Mixed and reoxidized as a His-tagged thioredoxin fusion, then characterized after thrombin cleavage as part of α123NC2-(GPP)5CC; also called Trx_α1NC2-(GPP)5CC (before thrombin cleavage)) peptide: GSGYPGRAPTDQHIKQVCMRVIQEHFAEMAASLKRPDSGATGASGPPGPPGPPGPPGPPGPCCGGV | binds |  |  |  |  |  | 
2 | disulfide-bonded α1NC2-α3NC2 (NC2 domains of the human collagen IX α1 and α3 chains, linked by a disulfide) (other, disulfide I:12-II:12 (inferred), Part of the α123NC2 complex after removal of His-tagged thioredoxin; also called α1-α3; U13) chain 1: GSPTDQHIKQVCMRVIQEHFAEMAASLKRPDS chain 2: GSASEQRIRELCGGMISEQIAQLAAHLRKPLAP |  | 65.8 | -203 kJ/(mol complex) | -502 J/(mol complex K) | 51.2 | -200 kJ/(mol complex) | -500 J/(mol complex K)
